Test results reported in US20220267443A1 (AGENUS, published 2022).

Tests used:
[1] = target: T1, human FcγRIIB expressed on CHO cells (human, UniProt P31994 43-310); assay: flow cytometry on CHO cells expressing human FcγRIIB
T1 construct: whole, on cells; also called rCHO-huFcγRIIB+
T1 sequence (looked up): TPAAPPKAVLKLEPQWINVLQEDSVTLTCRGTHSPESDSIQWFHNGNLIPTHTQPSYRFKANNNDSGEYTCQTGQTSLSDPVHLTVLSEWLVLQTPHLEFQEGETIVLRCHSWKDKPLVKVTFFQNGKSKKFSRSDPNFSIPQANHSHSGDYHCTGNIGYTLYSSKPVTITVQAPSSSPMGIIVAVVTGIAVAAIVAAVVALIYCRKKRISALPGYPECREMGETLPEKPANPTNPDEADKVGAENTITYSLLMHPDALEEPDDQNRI
Protocol: (§1) The binding of anti-CTLA-4 antibodies to human FcγRIIA, FcγRIIB, and FcγRIIIA expressed on the surface of CHO cells was measured by flow cytometry. Briefly, CHO cells were transfected with cDNA encoding for human FcγRIIA^H131, FcγRIIB, or FcγRIIIA^V158, generating the following CHO cell lines: rCHO-huFcγRIIA⁺, rCHO-huFcγRIIB⁺, and rCHO-huFcγRIIIA⁺. Binding of a dose titration of antibodies ranging from 0.0056-1000 μg/ml was performed and the primary antibodies were detected with an anti-human F(ab′) secondary antibody conjugated with Phycoerythrin (PE) (Jackson Immune Research). The samples were tested by flow cytometry and the PE mean fluorescence intensity (MFI) values were analyzed and used to generate binding curves. The antibodies tested were AGEN1884w, AGEN2041w, a reference anti-CTLA-4 IgG₁ antibody, and an IgG₁ isotype control antibody. AGEN1884w produced in two different growth media was used in this study: the growth media CD FortiCHO™ from Life Technologies Inc./Thermo (AGEN1884w-FortiCHO) and the growth media PowerCHO™ 2 from Lonza (AGEN1884w-PowerCHO). The reference anti-CTLA-4 IgG₁ antibody contains a different IgG₁ allotype from the one in AGEN1884w. The IgG₁ isotype control antibody was only tested at 1000 μg/ml.

[2] = target: T2, human FcγRIIIA^V158 expressed on cells (human, UniProt P08637 17-254); assay: flow cytometry on CHO cells expressing human FcγRIIIA^V158
T2 construct: whole, on cells; also called rCHO-huFcγRIIIA+
Protocol: as §1

[3] = target: T3, recombinant cynomolgus CTLA-4-Fc (Sino Biological, #90213-C02H) (cynomolgus, UniProt P16410 36-161 (human entry)); assay: suspension array (Luminex) selectivity assay as in Section 6.1.3
T3 construct: Bought protein; also called recombinant cynomolgus (rc) CTLA-4; not shown: Fc part of the bought fusion protein

[4] = target: T4, rhCD28-Fc (R&D, #342-CD-200) (human, UniProt P10747 19-152); assay: as above
T4 construct: Bought protein; also called recombinant human CD28; not shown: Fc part of the bought fusion protein

[5] = target: T5, rhICOS-Fc (R&D, #169-CS-050) (human, UniProt Q9Y6W8 21-141); assay: as above
T5 construct: Bought protein; also called recombinant human ICOS; not shown: Fc part of the bought fusion protein
T5 sequence: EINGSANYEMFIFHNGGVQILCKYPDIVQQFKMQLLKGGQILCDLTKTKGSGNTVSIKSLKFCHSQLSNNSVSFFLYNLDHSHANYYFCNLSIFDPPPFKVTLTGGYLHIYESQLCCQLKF

[6] = target: T6, rhBTLA-Fc (Sino Biological, #11896-H02H) (human, UniProt Q7Z6A9 31-157); assay: as above
T6 construct: Bought protein; also called recombinant human BTLA; not shown: Fc part of the bought fusion protein
T6 sequence: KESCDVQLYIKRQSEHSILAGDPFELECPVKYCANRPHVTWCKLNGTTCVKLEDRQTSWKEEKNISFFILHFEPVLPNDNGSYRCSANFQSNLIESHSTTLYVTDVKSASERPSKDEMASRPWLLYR

[7] = target: T7, rhPD-1-Fc (R&D Systems, #1086-PD) (human, UniProt Q15116 25-167); assay: as above
T7 construct: Bought protein; also called recombinant human PD-1; not shown: Fc part of the bought fusion protein
T7 sequence (Q15116 25-167 limits assumed): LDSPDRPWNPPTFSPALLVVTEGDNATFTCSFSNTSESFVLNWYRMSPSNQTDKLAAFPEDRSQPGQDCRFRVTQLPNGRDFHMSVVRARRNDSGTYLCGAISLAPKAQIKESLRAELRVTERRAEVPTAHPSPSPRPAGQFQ

T2 sequence (P08637 17-254 F176V limits assumed): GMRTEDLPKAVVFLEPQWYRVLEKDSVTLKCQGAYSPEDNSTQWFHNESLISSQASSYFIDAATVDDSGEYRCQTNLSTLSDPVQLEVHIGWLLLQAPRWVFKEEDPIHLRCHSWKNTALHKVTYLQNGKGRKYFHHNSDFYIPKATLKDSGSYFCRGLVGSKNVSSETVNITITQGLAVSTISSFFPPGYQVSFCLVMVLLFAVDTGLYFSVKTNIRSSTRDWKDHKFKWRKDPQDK
T4 sequence (P10747 19-152 limits assumed): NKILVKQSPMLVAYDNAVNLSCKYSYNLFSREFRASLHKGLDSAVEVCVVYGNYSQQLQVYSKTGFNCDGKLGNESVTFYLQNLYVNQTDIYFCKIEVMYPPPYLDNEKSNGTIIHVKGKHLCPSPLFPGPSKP
T3 sequence (P16410 other isoform, or with tags, fused parts or gaps C02H C02H limits assumed): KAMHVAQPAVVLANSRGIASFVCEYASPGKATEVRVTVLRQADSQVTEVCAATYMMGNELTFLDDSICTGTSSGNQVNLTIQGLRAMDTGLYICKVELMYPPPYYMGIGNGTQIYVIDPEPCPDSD

B1: AGEN2041w (antibody, human IgG2, kappa)
heavy: EVQLVESGGGLVKPGGSLRLSCAASGFTFSSYSMNWVRQAPGKGLEWVSSISSSSSYIYYADSVKGRFTISRDNAKNSLYLQMNSLRAEDTAVYYCARVGLMGPFDIWGQGTMVTVSSASTKGPSVFPLAPCSRSTSESTAALGCLVKDYFPEPVTVSWNSGALTSGVHTFPAVLQSSGLYSLSSVVTVPSSNFGTQTYTCNVDHKPSNTKVDKTVERKCCVECPPCPAPPVAGPSVFLFPPKPKDTLMISRTPEVTCVVVDVSHEDPEVQFNWYVDGVEVHNAKTKPREEQFNSTFRVVSVLTVVHQDWLNGKEYKCKVSNKGLPAPIEKTISKTKGQPREPQVYTLPPSREEMTKNQVSLTCLVKGFYPSDIAVEWESNGQPENNYKTTPPMLDSDGSFFLYSKLTVDKSRWQQGNVFSCSVMHEALHNHYTQKSLSLSPG
light: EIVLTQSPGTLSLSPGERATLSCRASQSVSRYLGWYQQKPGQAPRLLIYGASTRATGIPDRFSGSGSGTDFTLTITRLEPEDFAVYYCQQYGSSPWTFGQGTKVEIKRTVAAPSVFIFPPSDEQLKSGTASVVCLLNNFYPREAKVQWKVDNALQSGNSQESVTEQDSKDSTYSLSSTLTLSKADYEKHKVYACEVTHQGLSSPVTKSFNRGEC
notes: Human IgG2 version of AGEN1884w
B1: binds [1]; binds [2]; binds [3]. B1: no binding [4]; no binding [5]; no binding [6]. B1: no binding [7].
